Paper PMC6739602, “Intestinal Gel-Forming Mucins Polymerize by Disulfide-Mediated Dimerization of D3 Domains” (Journal of Molecular Biology, 2019)

How the values were obtained:
[1] = target: the molecule itself; test: SEC-MALS; Superdex 200 Increase 10/300 column, 0.5 ml/min, 25 mM Hepes (pH 7.4), 250 mM NaCl, 0.02% sodium azide
[2] = target: the molecule itself; test: SEC-MALS; Superose 6 10/300 column, 0.5 ml/min, 10 mM Tris (pH 7.4), 20 mM NaCl, 0.02% sodium azide

B1: MUC2D3, mucin 2 recombinant protein spanning residues 858 to 1259 (domain or fragment)
chain: APGTCSIYGSGHYITFDGKYYDFDGHCSYVAVQDYCGQNSSLGSFSIITENVPCGTTGVTCSKAIKIFMGRTELKLEDKHRVVIQRDEGHHVAYTTREVGQYLVVESSTGIIVIWDKRTTVFIKLAPSYKGTVCGLCGNFDHRSNNDFTTRDHMVVSSELDFGNSWKEAPTCPDVSTNPEPCSLNPHRRSWAEKQCSILKSSVFSICHSKVDPKPFYEACVHDSCSCDTGGDCECFCSAVASYAQECTKEGACVFWRTPDLCPIFCDYYNPPHECEWHYEPCGNRSFETCRTINGIHSNISVSYLEGCYPRCPKDRPIYEEDLKKCVTADKCGCYVEDTHYPPGASVPTEETCKSCVCTNSSQVVCRPEEGKILNQTQDGAFCYWEICGPNGTVEKHFNICSIT
modifications: N-linked glycans (six potential N-linked glycosylation sites); for the crystals endoH-treated to leave only a monosaccharide at glycosylated asparagines; intersubunit disulfides C1088-C1088 and C1130-C1130
notes: cleavage is predicted to occur between the two adjacent alanines; mucin 2 (MUC2), human, Uniprot Q02817, residues 858 to 1259 (VWD3, C8-3, TIL-3 and E-3 domains); Expressed in pcDNA3.1 downstream of the QSOX1 signal peptide; kifunensine/EndoH-treated protein gave the crystals of the solved structure; Disulfide-linked homodimer; also called mucin 2 multimerization module; MUC2 region spanning the …
**Q.** For B1, which “stoichiometry N” value [1] is on record?
**A.** Its value is 2.

B2: D1D2D3CysD1, mucin 2 recombinant protein spanning residues 21 to 1397 (domain or fragment, human, UniProt Q02817 21-1397, looked up)
chain: SELQTEGRTRNHGHNVCSTWGNFHYKTFDGDVFRFPGLCDYNFASDCRGSYKEFAVHLKRGPGQAEAPAGVESILLTIKDDTIYLTRHLAVLNGAVVSTPHYSPGLLIEKSDAYTKVYSRAGLTLMWNREDALMLELDTKFRNHTCGLCGDYNGLQSYSEFLSDGVLFSPLEFGNMQKINQPDVVCEDPEEEVAPASCSEHRAECERLLTAEAFADCQDLVPLEPYLRACQQDRCRCPGGDTCVCSTVAEFSRQCSHAGGRPGNWRTATLCPKTCPGNLVYLESGSPCMDTCSHLEVSSLCEEHRMDGCFCPEGTVYDDIGDSGCVPVSQCHCRLHGHLYTPGQEITNDCEQCVCNAGRWVCKDLPCPGTCALEGGSHITTFDGKTYTFHGDCYYVLAKGDHNDSYALLGELAPCGSTDKQTCLKTVVLLADKKKNVVVFKSDGSVLLNELQVNLPHVTASFSVFRPSSYHIMVSMAIGVRLQVQLAPVMQLFVTLDQASQGQVQGLCGNFNGLEGDDFKTASGLVEATGAGFANTWKAQSSCHDKLDWLDDPCSLNIESANYAEHWCSLLKKTETPFGRCHSAVDPAEYYKRCKYDTCNCQNNEDCLCAALSSYARACTAKGVMLWGWREHVCNKDVGSCPNSQVFLYNLTTCQQTCRSLSEADSHCLEGFAPVDGCGCPDHTFLDEKGRCVPLAKCSCYHRGLYLEAGDVVVRQEERCVCRDGRLHCRQIRLIGQSCTAPKIHMDCSNLTALATSKPRALSCQTLAAGYYHTECVSGCVCPDGLMDDGRGGCVVEKECPCVHNNDLYSSGAKIKVDCNTCTCKRGRWVCTQAVCHGTCSIYGSGHYITFDGKYYDFDGHCSYVAVQDYCGQNSSLGSFSIITENVPCGTTGVTCSKAIKIFMGRTELKLEDKHRVVIQRDEGHHVAYTTREVGQYLVVESSTGIIVIWDKRTTVFIKLAPSYKGTVCGLCGNFDHRSNNDFTTRDHMVVSSELDFGNSWKEAPTCPDVSTNPEPCSLNPHRRSWAEKQCSILKSSVFSICHSKVDPKPFYEACVHDSCSCDTGGDCECFCSAVASYAQECTKEGACVFWRTPDLCPIFCDYYNPPHECEWHYEPCGNRSFETCRTINGIHSNISVSYLEGCYPRCPKDRPIYEEDLKKCVTADKCGCYVEDTHYPPGASVPTEETCKSCVCTNSSQVVCRPEEGKILNQTQDGAFCYWEICGPNGTVEKHFNICSITTRPSTLTTFTTITLPTTPTTFTTTTTTTTPTSSTVLSTTPKLCCLWSDWINEDHPSSGSDDGDRETFDGVCGAPEDIECRSVKDPHLSLEQLGQKVQCDVSVGFICKNEDQFGNGPFGLCYDYKIRVNCCWPMDKCIT
notes: mucin 2 (MUC2), human, Uniprot Q02817, residues 21 to 1397 (includes the CysD1 domain following a short threonine-rich segment); Probably made with the same QSOX1 signal peptide as MUC2D3, which would leave Ala-Pro at the N-terminus; also called the largest fragment; source: HEK293F, produced and purified essentially as for MUC2D3 (no kifunensine; preparative gel filtration in 10 mM Hepes pH 7.5, …)
**Q.** With B2 as the protein, how does the “stoichiometry N” value [2] read?
**A.** The value was 2.

B3: D1D2D3, mucin 2 recombinant protein spanning residues 21 to 1259 (domain or fragment, human, UniProt Q02817 21-1259, looked up)
chain: SELQTEGRTRNHGHNVCSTWGNFHYKTFDGDVFRFPGLCDYNFASDCRGSYKEFAVHLKRGPGQAEAPAGVESILLTIKDDTIYLTRHLAVLNGAVVSTPHYSPGLLIEKSDAYTKVYSRAGLTLMWNREDALMLELDTKFRNHTCGLCGDYNGLQSYSEFLSDGVLFSPLEFGNMQKINQPDVVCEDPEEEVAPASCSEHRAECERLLTAEAFADCQDLVPLEPYLRACQQDRCRCPGGDTCVCSTVAEFSRQCSHAGGRPGNWRTATLCPKTCPGNLVYLESGSPCMDTCSHLEVSSLCEEHRMDGCFCPEGTVYDDIGDSGCVPVSQCHCRLHGHLYTPGQEITNDCEQCVCNAGRWVCKDLPCPGTCALEGGSHITTFDGKTYTFHGDCYYVLAKGDHNDSYALLGELAPCGSTDKQTCLKTVVLLADKKKNVVVFKSDGSVLLNELQVNLPHVTASFSVFRPSSYHIMVSMAIGVRLQVQLAPVMQLFVTLDQASQGQVQGLCGNFNGLEGDDFKTASGLVEATGAGFANTWKAQSSCHDKLDWLDDPCSLNIESANYAEHWCSLLKKTETPFGRCHSAVDPAEYYKRCKYDTCNCQNNEDCLCAALSSYARACTAKGVMLWGWREHVCNKDVGSCPNSQVFLYNLTTCQQTCRSLSEADSHCLEGFAPVDGCGCPDHTFLDEKGRCVPLAKCSCYHRGLYLEAGDVVVRQEERCVCRDGRLHCRQIRLIGQSCTAPKIHMDCSNLTALATSKPRALSCQTLAAGYYHTECVSGCVCPDGLMDDGRGGCVVEKECPCVHNNDLYSSGAKIKVDCNTCTCKRGRWVCTQAVCHGTCSIYGSGHYITFDGKYYDFDGHCSYVAVQDYCGQNSSLGSFSIITENVPCGTTGVTCSKAIKIFMGRTELKLEDKHRVVIQRDEGHHVAYTTREVGQYLVVESSTGIIVIWDKRTTVFIKLAPSYKGTVCGLCGNFDHRSNNDFTTRDHMVVSSELDFGNSWKEAPTCPDVSTNPEPCSLNPHRRSWAEKQCSILKSSVFSICHSKVDPKPFYEACVHDSCSCDTGGDCECFCSAVASYAQECTKEGACVFWRTPDLCPIFCDYYNPPHECEWHYEPCGNRSFETCRTINGIHSNISVSYLEGCYPRCPKDRPIYEEDLKKCVTADKCGCYVEDTHYPPGASVPTEETCKSCVCTNSSQVVCRPEEGKILNQTQDGAFCYWEICGPNGTVEKHFNICSIT
notes: mucin 2 (MUC2), human, Uniprot Q02817, residues 21 to 1259; Probably made with the same QSOX1 signal peptide as MUC2D3, which would leave Ala-Pro at the N-terminus; also called MUC2 D1D2D3; source: HEK293F, produced and purified essentially as for MUC2D3 (no kifunensine; preparative gel filtration in 10 mM Hepes pH 7.5, 20 mM NaCl); not shown: His6, C-terminal, kept
**Q.** With B3 as the protein, how does the “stoichiometry N” value [2] read?
**A.** Its value is 2.
